Data from article doi:10.1101/2022.05.25.493364.

Molecular target: cGAS (cyclic GMP-AMP synthase) of the Serratia marcescens E2-CBASS operon, N-terminal 6×His-tag (Serratia marcescens)
Test: in vitro covalent bonding assay

rate of isopeptide bond (+DTT) formation: 0.5 min⁻¹
rate of total bond (thioester+isopeptide, -DTT) formation: 0.63 min⁻¹
Substance: E2 of the Serratia marcescens E2-CBASS operon, N-terminal 6×His-tag (enzyme)
